Experimental data taken from article doi:10.1101/671156.

Key:
[1] = target: biotin-labeled YxxQ diheptad peptide (human) (UniProt Q96PK6); assay: ELISA; settings: domain or fragment
[2] = target: CoAA YxxQ repeats, 307-545 (UniProt Q96PK6); assay: plate-coated GST-YxxQ, biotin peptide, streptavidin-HRP; settings: reference: unphosphorylated CTD peptide
CoAA YxxQ repeats, 307-545, sequence (Q96PK6 whole entry, looked up, tested part not stated): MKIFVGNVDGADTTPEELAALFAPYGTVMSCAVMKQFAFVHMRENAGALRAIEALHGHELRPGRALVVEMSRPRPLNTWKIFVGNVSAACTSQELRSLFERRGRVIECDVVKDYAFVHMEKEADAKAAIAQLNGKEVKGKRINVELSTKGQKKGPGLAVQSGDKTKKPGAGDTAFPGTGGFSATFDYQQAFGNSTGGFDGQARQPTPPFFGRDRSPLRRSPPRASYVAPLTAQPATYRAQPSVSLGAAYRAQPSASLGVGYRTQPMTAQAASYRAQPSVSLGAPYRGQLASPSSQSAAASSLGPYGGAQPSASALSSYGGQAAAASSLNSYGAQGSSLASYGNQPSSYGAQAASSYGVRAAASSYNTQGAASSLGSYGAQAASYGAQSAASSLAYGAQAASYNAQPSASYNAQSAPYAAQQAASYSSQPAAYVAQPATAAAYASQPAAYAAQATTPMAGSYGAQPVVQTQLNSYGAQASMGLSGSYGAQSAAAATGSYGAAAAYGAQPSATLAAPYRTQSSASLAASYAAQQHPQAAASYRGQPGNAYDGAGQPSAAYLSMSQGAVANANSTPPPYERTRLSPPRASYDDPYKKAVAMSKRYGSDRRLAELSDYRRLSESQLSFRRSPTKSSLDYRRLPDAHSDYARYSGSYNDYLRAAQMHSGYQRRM

GST-CTD-AA (not phosphorylated, coated on plate), sequence (P04050 whole entry, looked up): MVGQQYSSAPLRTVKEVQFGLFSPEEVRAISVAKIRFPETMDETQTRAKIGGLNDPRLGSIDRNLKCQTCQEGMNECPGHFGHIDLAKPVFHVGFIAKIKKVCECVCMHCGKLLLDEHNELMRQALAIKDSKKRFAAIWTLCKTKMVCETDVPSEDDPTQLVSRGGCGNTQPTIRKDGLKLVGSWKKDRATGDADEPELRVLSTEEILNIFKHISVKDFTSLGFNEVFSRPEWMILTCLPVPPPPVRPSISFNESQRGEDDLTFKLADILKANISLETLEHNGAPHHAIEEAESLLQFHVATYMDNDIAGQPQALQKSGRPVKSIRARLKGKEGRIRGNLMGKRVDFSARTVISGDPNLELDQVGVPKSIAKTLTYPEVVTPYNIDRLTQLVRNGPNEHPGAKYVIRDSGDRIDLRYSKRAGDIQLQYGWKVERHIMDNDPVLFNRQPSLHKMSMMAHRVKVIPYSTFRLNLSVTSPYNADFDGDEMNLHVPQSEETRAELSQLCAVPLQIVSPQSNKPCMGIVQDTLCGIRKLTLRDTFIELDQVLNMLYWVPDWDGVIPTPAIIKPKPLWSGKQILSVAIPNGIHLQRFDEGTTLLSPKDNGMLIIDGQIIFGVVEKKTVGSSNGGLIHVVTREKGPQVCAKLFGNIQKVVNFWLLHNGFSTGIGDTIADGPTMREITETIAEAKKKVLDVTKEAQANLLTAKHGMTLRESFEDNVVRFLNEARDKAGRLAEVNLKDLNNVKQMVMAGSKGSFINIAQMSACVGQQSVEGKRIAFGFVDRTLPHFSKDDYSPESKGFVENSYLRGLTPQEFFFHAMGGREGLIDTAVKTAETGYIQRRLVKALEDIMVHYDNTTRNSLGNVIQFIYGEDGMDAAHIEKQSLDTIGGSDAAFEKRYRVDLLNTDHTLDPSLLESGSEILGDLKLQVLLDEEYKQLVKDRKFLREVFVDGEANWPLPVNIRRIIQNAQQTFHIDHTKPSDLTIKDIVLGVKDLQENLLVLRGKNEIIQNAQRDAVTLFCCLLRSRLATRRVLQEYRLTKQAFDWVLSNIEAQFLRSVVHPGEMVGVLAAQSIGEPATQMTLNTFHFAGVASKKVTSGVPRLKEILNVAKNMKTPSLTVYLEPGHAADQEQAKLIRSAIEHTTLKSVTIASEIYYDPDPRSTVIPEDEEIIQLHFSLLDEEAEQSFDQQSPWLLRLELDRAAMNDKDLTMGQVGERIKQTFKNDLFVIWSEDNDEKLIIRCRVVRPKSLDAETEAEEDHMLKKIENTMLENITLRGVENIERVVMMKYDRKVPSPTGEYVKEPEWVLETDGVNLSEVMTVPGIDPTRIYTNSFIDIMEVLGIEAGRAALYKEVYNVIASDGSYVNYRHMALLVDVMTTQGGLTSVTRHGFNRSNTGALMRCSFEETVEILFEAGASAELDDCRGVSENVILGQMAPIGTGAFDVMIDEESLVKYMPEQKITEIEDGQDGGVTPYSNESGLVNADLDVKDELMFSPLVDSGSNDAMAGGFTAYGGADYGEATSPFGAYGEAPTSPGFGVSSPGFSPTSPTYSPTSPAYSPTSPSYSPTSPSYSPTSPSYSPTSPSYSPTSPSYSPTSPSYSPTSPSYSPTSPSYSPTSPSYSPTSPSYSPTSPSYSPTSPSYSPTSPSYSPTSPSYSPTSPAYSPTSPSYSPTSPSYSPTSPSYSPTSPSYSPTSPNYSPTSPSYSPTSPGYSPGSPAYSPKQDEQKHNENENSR

Work on “GST-CTD-AA (not phosphorylated, coated on plate) (from UniProt P04050)” yielded an EC50 [1] of 2.43 µM.
With “RNA polymerase II largest subunit CTD pSer2 CTD peptide” the EC50 ([2]; sites S2) was “stronger; reference 1066”.
For “RNA polymerase II largest subunit CTD pSer5 CTD peptide”, the EC50 ([2]; sites S5) was “stronger; reference 1066”.
